Test results published in patent US20120245221A1, “ANTI-APOPTOTIC AGENTS AND USES THEREOF” (priority 2009, published 2012).

Assays:
Schwann cells [1] = assay: TNF-α and TGF-β induced apoptosis, TUNEL assay; type: cell-based, human; settings: TNF-α 20 ng/ml and TGF-β 40 ng/ml
Method: (§1) Infected Schwann cells, Sc-Red cells, and Sc-PDNF cells were treated for 24 hours with 100 to 500 μM H2O2 with or without pretreatment with the Akt inhibitor Akti VIII (10 μM), fixed, and visualized by fluorescence microscopy after staining with DAPI and TUNEL reagents with the In Situ Cell Death Detection kit (Roche). Cell survival was measured by MTT-based CellTiter kit (Promega). Alternatively, Sc-Red and Sc-PDNF cells were grown for 4 days in DMEM, 1% bovine serum albumin (BSA) with or without TNF-α (20 ng/ml) and TGF-β1 (40 ng/ml) and with or without Akti VIII (10 μM).

Akt [2] = assay: Akt-dependent phosphorylation of PDNF in Schwann cells (immunoprecipitation with TCN-2, Western blotting); type: cell-based, human
Method: To provide further evidence that the phosphorylation of PDNF depended on host […], T. cruzi-infected Schwann cells were treated with LY294002, a pharmacological inhibitor of PI3K, which phosphorylates and activates Akt (10), and with Akti VIII, a specific allosteric inhibitor of Akt that prevents the phosphorylation of Akt at Ser^473 and Thr^308, which is critical for the activation of Akt (25). Lysates of treated cells were assayed for phosphorylated Akt (pAkt) and, after immunoprecipitation with a PDNF-specific antibody, for the presence of Akt-phosphorylated substrates. […] The conclusion that PDNF was a substrate of Akt was further reinforced by in vitro kinase assays.
(§2) Cell monolayers were lysed with lysis buffer (20 mM tris-HCl (pH 7.5), 150 mM NaCl, 1 mM EDTA, 1% Triton X-100, 2.5 mM sodium pyrophosphate, 1 mM glycerophosphate, 1 mM Na3VO4, 1 μg/mL leupeptin and 1 mM phenylmethylsulfonyl fluoride (PMSF)) on ice for 10 min, cleared by centrifugation (12,000×g for 10 min at 4° C.) and immunoprecipitated with an antibody specific for Akt-phosphorylated substrate or with TCN-2 at 4° C. overnight Immunoprecipitates were collected with protein G-Sepharose for 2 hours at 4° C., washed with lysis buffer, and resuspended in SDS-sample buffer for SDS-PAGE and Western blotting analysis. In other experiments, total cell lysates (30 to 50 μg of protein) were resolved by SDS-PAGE, transferred to nitrocellulose membranes, and incubated with the relevant primary antibodies, followed by incubation with HRP-conjugated secondary antibody and visualization by ECL.

Schwann cells [3] = type: cell-based, human; settings: 100 μM H2O2, 24 hours
Method: (§3) Immortalized human Schwann cells (54) were maintained in DMEM supplemented with 10% FCS and penicillin/streptomycin at 37° C. in 5% CO2. Infections were performed with T. cruzi trypomastigotes (Silvio strain) at 2×10^5 parasites/ml or at a parasite:cell ratio of 50:1. After 2 or 3 hours, monolayers were washed to remove unattached parasites and cells were then maintained in medium containing 2% FCS for 3 to 5 days to complete the intracellular infection cycle.
as §1

Schwann cells [4] = assay: H2O2-induced apoptosis, TUNEL assay; type: cell-based, human
Method: as §1

[5] = tested on: bacterially-expressed PDNF (recombinant full-length PDNF, clone 19Y, expressed in E. coli)
[6] = molecular target: Akt kinase, endogenous protein of immortalized human Schwann cells (human) (UniProt P31749); assay: cell-based or functional assay
Akt3 [7] = assay: Real-time PCR, Sc-PDNF vs Sc-Red cells: Akt3; type: cell-based, human; settings: PDNF-transfected Schwann cells vs control cells
Method: (§4) These assays were performed as described previously (57, 58). In brief, RNA was isolated with the Trizol reagent and chloroform, cDNA was synthesized from 500 ng of total RNA with Superscript III reverse transcriptase primed with random hexamers, and quantitative PCR reactions were performed with QuantiTect SYBR Green PCR kit (Qiagen) on an Applied Biosystems 7300 Real-Time PCR system. Conditions for the PCR reactions were: 95° C. for 15 min, followed by 50 cycles at 94° C. for 15 s, 54° C. for 30 s, and 72° C. for 45 s, concluding with a dissociation stage to measure amplification product specificity. Primers used to calculate Akt expression were synthesized as described previously (57). Experiments were performed in triplicate, and fold differences were calculated by the 2^−ΔΔCt method (ΔΔCt=(Cttarget gene−Ctb-actin)treated−(Cttarget gene−Ctb-actin)untreated) as described previously (58).

Akt2 = assay: Real-time PCR, Sc-PDNF vs Sc-Red cells: Akt2; type: cell-based, human; settings: PDNF-expressing cells vs control cells, p<0.05
Method: as §4

[8] = tested on: mitochondrial protein BAX; assay: cDNA microarray, Sc-PDNF vs Sc-Red cells: BAX mRNA; type: cell-based, human; settings: PDNF-expressing Schwann cells vs control cells
Method: (§5) These analyses were performed as described previously (55, 56). The concentration and quality of total RNA isolated from Sc-Red cells and Sc-PDNF cells were estimated by spectrophotometry (A260 nm/A280 nm of 1.9 to 2.1) and by agarose gel electrophoresis. Hybridization and data analysis were performed by the Tufts Expression Array Core with cDNAs prepared from Sc-Red cells and Sc-PDNF cells labeled with aminoallyl (aa)-dUTP Cy3 or Cy5 dyes, respectively. The two differently dye-labeled cDNAs were hybridized with the same microarray slide containing 48,500 human genes (Microarrays Inc) for 16 hours. After washing, the slide was scanned at 550 nm and 649 nm for Cy-3 and Cy-5 dyes, respectively, in a ScanArray 4000 scanner (PerkinElmer). Images were overlaid and analyzed with QuantArray spot quantification software (Packard BioChip Technologies). The ratio of both fluorescence intensities for each spot reflected the ratio of each gene expressed in the control and treatment samples. […] For each gene, ratios of red (Cy-5) over green (Cy-3) intensities (I) were calculated and normalized through a Lowess Fit of the log2 ratios (log2(Icy-5/Icy-3)) over the log2 of the total intensity (log2(Icy-5. Icy-3)). Mean ratios were calculated from the duplicate spots, and only values with a covariance (CV) b0.5 were further taken into account. […]

Akt3 [9] = assay: cDNA microarray, Sc-PDNF vs Sc-Red cells: Akt3 mRNA; type: cell-based, human; settings: Schwann cells expressing PDNF vs control cells
Method: as §5

Akt [10] = assay: Western blotting of pAkt (activation of Akt) in Schwann cells; type: cell-based, human; settings: Schwann cell-expressed PDNF compared to control transfected cells
Method: as §3
The coding region of the gene encoding PDNF (formerly T. cruzi neuraminidase, or TCNA) was amplified from the TS19y clone (20) with the primers TCNA-F: 5′-[…]-3′ (SEQ ID NO: 11) and TCNA-R: 5′-[…] (SEQ ID NO: 12) (restriction sites for XhoI and SacII are underlined) and inserted into the pIRES2-DsRed-Express vector (Clontech). Selected recombinant plasmids were purified with the Qiagen kit, sequenced at Tufts University Core facility, and used for transfections. Cells were plated at 1×10^5 cells/ml in 100-mm plates 20 hours before their transfection with 10 μg of total DNA per plate with the FuGENE HD transfection reagent (Roche Diagnostics) as recommended by the manufacturer. Transfected cells were selected with G418 (1 mg/ml) and analyzed for the presence of PDNF by Western blotting and trans-sialidase activity assays (26). […]

other protein kinases = assay: cDNA microarray, Sc-PDNF vs Sc-Red cells: other protein kinase mRNAs; type: cell-based, human; settings: Schwann cells expressing PDNF vs control cells
Method: as §5

caspase-9 = assay: cDNA microarray, Sc-PDNF vs Sc-Red cells: caspase-9 mRNA; type: cell-based, human; settings: PDNF-expressing Schwann cells vs control cells
Method: as §5

Akt [11] = assay: Coimmunoprecipitation of PDNF and Akt; type: binding; settings: lysates of T. cruzi-infected human Schwann cells, 4 days; IP with mAb TCN-2
Method: We infected Schwann cells with T. cruzi for 2 hours, removed parasites from the medium overlay by washing, and cultured the cells for 4 days to allow intracellular parasites to differentiate, grow, and multiply. Lysates of uninfected and infected Schwann cells were immunoprecipitated with the monoclonal antibody (mAb) TCN-2, which is specific for the C-terminal tandem repeat unit of PDNF (FIG. 1A) (23), and Western blots of these immunoprecipitates were incubated with PDNF— and Akt-specific antibodies.
as §2

[12] = tested on: transcription factor FOXO; assay: cDNA microarray, Sc-PDNF vs Sc-Red cells: FOXO mRNA; type: cell-based, human; settings: PDNF-expressing Schwann cells vs control cells
Method: as §5

[13] = T. cruzi-infected Schwann cells treated with inhibitor for 24 hours

In the case of O=c1[nH]c2ccccc2n1C1CCN(Cc2ccc(-c3nc4cc5[nH]cnc5cc4nc3-c3ccccc3)cc2)CC1 [Akti VIII], the “effect of Akt inhibitor on anti-apoptotic effect of intracellular PDNF” value (Schwann cells [1]; Akti VIII 10 μM) is reported as “abolished”, the “extent of the phosphorylation of PDNF” value (Akt [2]; Schwann cells transfected with plasmid encoding PDNF, inhibitor for 24 hours) is reported as “substantially decreased” and the “abundance of activated Akt (pAkt)” value (Akt [2]; [13]) is reported as “reduction in abundance of activated Akt”. The “abundance of unphosphorylated PDNF” value (Akt [2]; [13]) was “did not affect”, the “phosphorylation of PDNF” value (Akt [2]; [13]) was “inhibition of the phosphorylation of PDNF” and the “effect of Akt inhibitor on survival-promoting activity of PDNF” value (Schwann cells [3]; Sc-PDNF cells pretreated with Akti VIII 10 μM) was “abrogated”. For the same molecule, the “effect of Akt inhibitor on resistance of infected cells to oxidative stress” value (Schwann cells [3]; T. cruzi-infected Schwann cells pretreated with Akti VIII 10 μM) was “lost”.

With OO [H2O2, hydrogen peroxide] the “apoptosis induced in uninfected Schwann cells” value (Schwann cells [4]; 100 μM H2O2, 6 hours) was roughly 25%, the “uninfected cells with apoptosis-related DNA damage” value (Schwann cells [4]; 500 μM H2O2, 24 hours) was roughly 90% and the “cell survival of uninfected Schwann cells” value (Schwann cells [3]) was “only half of the cells survived”.

With “Akt kinase, endogenous protein of immortalized human Schwann cells” the “in vitro kinase assay: phosphorylation of bPDNF by immuno-purified Akt, Western blot with antibody against Akt-phosphorylated substrates” value [5] was “generated phosphorylated PDNF in vitro in a dose-dependent and ATP-dependent manner”.

For “PDNF expressed in the cytosol of human Schwann cells transfected with pIRES2-DsRed-Express carrying”, the apoptosis (TUNEL assay) of Sc-PDNF cells in TNF-α (20 ng/ml) and TGF-β (40 ng/ml) [6] was 2.5 % of cells.

Molecule “PDNF expressed in the cytosol of human Schwann cells transfected with pIRES2-DsRed-Express carrying (enzyme)” has an abundance of pAkt (Ser^473), Western blot with scanning densitometry, Sc-PDNF against control transfected cells [6] of 5 fold and an abundance of pAkt (Thr^308), Western blot with scanning densitometry, Sc-PDNF against control transfected cells [6] of 6 fold.

B1: PDNF: Trypanosoma cruzi membrane-bound neuraminidase/trans-sialidase; clone 19Y expressed in Schwann cell cytosol from pIRES2-DsRed-Express plasmid (protein, listed as Trypanosoma cruzi)
chain: MGKTVVVASRMFWLMFFVPLLLAICPSEPAYALAPGSSRVELFKRKNSTVPFEDKAGKVTERVVHSFRLPALVNVDGVMVAIADARYDTSNDNSLIDTVAKYSVDDGETWETQIAIKNSRVSSVSRVVDPTVIVKGNKLYVLVGSYYSSRSYWSSHGDARDWDILLAVGEVTKSTAGGKITASIKWGSPVSLKKFFPAEMEGMHTNQFLGGAGVAIVASNGNLVYPVQVTNKKKQVFSKIFYSEDDGKTWKFGKGRSDFGCSEPVALEWEGKLIINTRVDWKRRLVYESSDMEKPWVEAVGTVSRVWGPSPKSNQPGSQSSFTAVTIEGMRVMLFTHPLNFKGRWLRDRLNLWLTDNQRIYNVGQVSIGDENSAYSSVLYKDDKLYCLHEINTDEVYSLVFARLVGELRIIKSVLRSWKNWDSHLSSICTPADPAASSSESGCGPAVTTVGLVGFLSGNASQNVWEDAYRCVNASTANAERVRNGLKFAGVGGGALWPVSQQGQNQRYRFANHAFTLVASVTIHEAPRAASPLLGASLDSSGGKKLLGLSYDEKHQWQPIYGSTPVTPTGSWETGKRYHLVLTMANKIGSVYIDGELLEGSGQTVVPDGRTPDISHFYVGGYKRSDMPTISHVTVNNVLLYNRQLNTEEIRTLFLSQDLIGTEAHM
With B1 the “increased expression of the gene encoding Akt3” value (Akt3 [7]) was 3 fold, the “cells that underwent apoptosis (TUNEL-positive)” value (Schwann cells [1]; PDNF in Schwann cell cytosol, 4 days) was 2.5%±0.7 and the “increase in the mRNA for Akt2” value (Akt2) was roughly 5.0 fold. For the same molecule, the “BAX mRNA reduced in abundance” value [8] was roughly 2.6 fold, the “Akt3 mRNA more abundant” value (Akt3 [9]) was roughly 3 fold and the “increase in the abundance of pAkt (Ser473)” value (Akt [10]) was “five-fold”. For the same molecule, the “increase in the abundance of pAkt (Thr308)” value (Akt [10]) was “six-fold”, the “protection from H2O2-induced oxidative stress” value (Schwann cells [3]; Schwann cells transfected with plasmid encoding PDNF) was “protected from H2O2-induced oxidative stress” and the “abundance of the mRNAs for other protein kinases” value (other protein kinases) was “unaltered”. For the same molecule, the “caspase-9 mRNA reduced in abundance” value (caspase-9) was roughly 5.0 fold, the “physical interaction between PDNF and Akt” value (Akt [11]) was “coimmunoprecipitated PDNF and Akt” and the “FOXO mRNA reduced in abundance” value [12] was roughly 4.0 fold.
